Measurements: patent US20210324028A1 (Pfizer, published 2021)

T1: mouse PD-1 on doxycycline-induced 32D[pRF770+pRF791] cells (mouse, UniProt Q02242 25-288)
T1 sequence (looked up): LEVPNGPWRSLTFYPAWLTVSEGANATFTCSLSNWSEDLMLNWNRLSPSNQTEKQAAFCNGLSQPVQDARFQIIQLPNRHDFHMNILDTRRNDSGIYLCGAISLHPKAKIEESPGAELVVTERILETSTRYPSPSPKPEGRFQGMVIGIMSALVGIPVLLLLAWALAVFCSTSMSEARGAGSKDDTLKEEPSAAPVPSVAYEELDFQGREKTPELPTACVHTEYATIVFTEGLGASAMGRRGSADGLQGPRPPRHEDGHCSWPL

T2: IL-15 signaling receptor on 32D[pRF770+pRF791] cells (human CD122 plus mouse CD132) (human; mouse, UniProt P14784 27-551; P34902 23-369)
T2 sequence (looked up) 1: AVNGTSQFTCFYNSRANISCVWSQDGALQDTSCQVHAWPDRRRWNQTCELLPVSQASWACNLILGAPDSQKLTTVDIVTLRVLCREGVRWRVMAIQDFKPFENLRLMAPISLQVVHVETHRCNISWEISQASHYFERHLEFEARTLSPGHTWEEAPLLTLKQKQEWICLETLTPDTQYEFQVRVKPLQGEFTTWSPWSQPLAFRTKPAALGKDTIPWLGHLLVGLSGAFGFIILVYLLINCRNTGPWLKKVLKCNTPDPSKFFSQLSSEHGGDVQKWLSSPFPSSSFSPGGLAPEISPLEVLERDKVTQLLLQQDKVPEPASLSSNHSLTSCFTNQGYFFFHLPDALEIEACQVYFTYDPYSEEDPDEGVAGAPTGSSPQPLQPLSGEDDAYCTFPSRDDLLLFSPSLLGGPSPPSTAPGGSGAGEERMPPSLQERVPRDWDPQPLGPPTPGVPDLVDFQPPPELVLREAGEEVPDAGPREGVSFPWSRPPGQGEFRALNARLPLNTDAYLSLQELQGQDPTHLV
T2 sequence (looked up) 2: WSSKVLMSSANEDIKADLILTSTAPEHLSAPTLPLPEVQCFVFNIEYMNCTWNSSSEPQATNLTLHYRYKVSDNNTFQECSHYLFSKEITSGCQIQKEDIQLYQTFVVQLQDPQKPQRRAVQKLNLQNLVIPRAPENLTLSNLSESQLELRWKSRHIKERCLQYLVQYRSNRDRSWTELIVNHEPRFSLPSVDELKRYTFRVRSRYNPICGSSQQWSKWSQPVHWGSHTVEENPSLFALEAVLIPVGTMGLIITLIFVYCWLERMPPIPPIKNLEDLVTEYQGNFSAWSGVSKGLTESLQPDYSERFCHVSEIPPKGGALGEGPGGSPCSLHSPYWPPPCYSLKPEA

T3: human IL-2Rβ (human, UniProt P14784 27-240, limits assumed)
T3 construct: also called hIL-2Rβ; IL-2 receptor beta
T3 sequence (looked up): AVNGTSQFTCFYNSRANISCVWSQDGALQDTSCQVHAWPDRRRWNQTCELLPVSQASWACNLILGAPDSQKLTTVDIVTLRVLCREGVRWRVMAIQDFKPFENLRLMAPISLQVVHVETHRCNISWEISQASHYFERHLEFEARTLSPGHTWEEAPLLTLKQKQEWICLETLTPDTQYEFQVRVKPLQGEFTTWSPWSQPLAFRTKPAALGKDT


Experiments:
human IL-15Rα = biological target: T4, human IL-15Rα (human, UniProt Q13261 31-205, limits assumed); assay: SPR 37C, fusion captured by anti-human Fc
T4 construct: also called hIL-15Rα; IL-15 receptor alpha
Protocol: (§1) Anti-human Fc sensor chips were prepared at 25° C. with a running buffer of 10 mM HEPES, 150 mM NaCl, 0.05% (v/v) Tween-20, pH 7.4. All surfaces of a Biacore CM4 sensor chip were activated with a 1:1 (v/v) mixture of 400 mM EDC and 100 mM NHS for 7 minutes, at a flow rate of 10 μL/min. An anti-human Fc reagent (Goat anti-human IgG Fc-γ specific, SouthernBiotech, Birmingham, Ala., Catalog #2014-01) was diluted to 50 μg/mL in 10 mM sodium acetate (pH 4.5) and injected on all flow cells for 7 minutes at 20 μL/min. All flow cells were blocked with 100 mM ethylenediamine in 200 mM Borate buffer pH 8.5 for 7 minutes at 10 μL/min.
(§2) All protein interaction experiments were performed at 37° C. using a running buffer of 10 mM HEPES, 150 mM NaCl, 0.05% (v/v) Tween-20, pH 7.4, 1 mg/mL BSA. Anti-PD-1-hIL-15 fusion proteins were captured at 10 μg/mL at a flow rate of 10 μL/min for 2 minutes. Different fusion proteins were captured in flow cells 2, 3 and 4. No protein was captured onto flow cell 1 which was used as a reference surface. […] After each analyte injection, dissociation was monitored for 5 minutes followed by regeneration of all flow cells with three 60-second injections of 75 mM phosphoric acid. […] For kinetic analysis, the double-referenced sensorgrams were fit globally to a simple 1:1 Langmuir with mass transport binding model using Biacore T200 Evaluation Software version 2.0. For steady-state affinity analysis, the double-referenced equilibrium binding responses were fit with a 1:1 Langmuir steady-state model using Biacore T200 Evaluation Software version 2.0.

[1] = biological target: T1, mouse PD-1 on doxycycline-induced …; assay: cell-based or functional assay
[2] = biological target: T2, IL-15 signaling receptor on …; assay: cell-based or functional assay
human IL-2Rβ [3] = biological target: T3, human IL-2Rβ; assay: SPR, steady state, fusion captured
Protocol: as §1, §2

human IL-2Rβ [4] = biological target: T3, human IL-2Rβ; assay: SPR, fusion captured
Protocol: as §1, §2

T4 sequence (Q13261 31-205 limits assumed): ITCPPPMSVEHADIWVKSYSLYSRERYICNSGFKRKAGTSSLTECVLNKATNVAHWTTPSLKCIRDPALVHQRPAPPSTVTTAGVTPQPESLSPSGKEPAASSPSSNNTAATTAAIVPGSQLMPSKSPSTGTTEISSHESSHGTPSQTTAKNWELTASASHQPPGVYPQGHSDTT

Row | binding result (human IL-15Rα) | Fold change = EC50 (PD-1(low))/EC50 (PD-1+) [1] | pSTAT5 EC50 on PD-1+ 32D reporter cells [1] | pSTAT5 EC50 on PD-1(low) 32D reporter cells [2] | Kd (human IL-2Rβ [3]) | Kd (human IL-2Rβ [4]) | Binder
1 | no binding (tested: 3000 nM) | 163 fold | 22.9 pM | 3.73 nM | 446 nM | – | xmPD-1-hIL15 NQ-3d (other, also called xmPD-1-IL15 NQ-3d; xmPD-IL15 NQ3d) heavy 1: HHHHHHHHGGGGSGSGGEVQLVESGGGLVKPGGSLELSCAASGFTFSSYWMSWVRQAPEKGLEWVAAISPSGGSTYYADSVKGRFTISRDNAKNTLFLQMTSLRSEDTAMYYCAKESWGAYYDLWGQGTTVTVSSASTKGPSVFPLAPCSRSTSESTAALGCLVKDYFPEPVTVSWNSGALTSGVHTFPAVLQSSGLYSLSSVVTVPSSNFGTQTYTCNVDHKPSNTKVDKTVERKCRVRCPRCPAPPVAGPSVFLFPPKPKDTLMISRTPEVTCVVVAVSHEDPEVQFNWYVDGVEVHNAKTKPREEQFNSTFRVVSVLTVVHQDWLNGKEYKCKVSNKGLPSSIEKTISKTKGQPREPQVYTLPPSREEMTKNQVSLTCLVKGFYPSDIAVEWESNGQPENNYKTTPPMLDSDGSFFLYSRLTVDKSRWQQGNVFSCSVMHEALHNHYTQKSLSLSPGK heavy 2: EVQLVESGGGLVKPGGSLELSCAASGFTFSSYWMSWVRQAPEKGLEWVAAISPSGGSTYYADSVKGRFTISRDNAKNTLFLQMTSLRSEDTAMYYCAKESWGAYYDLWGQGTTVTVSSASTKGPSVFPLAPCSRSTSESTAALGCLVKDYFPEPVTVSWNSGALTSGVHTFPAVLQSSGLYSLSSVVTVPSSNFGTQTYTCNVDHKPSNTKVDKTVERKCEVECPECPAPPVAGPSVFLFPPKPKDTLMISRTPEVTCVVVAVSHEDPEVQFNWYVDGVEVHNAKTKPREEQFNSTFRVVSVLTVVHQDWLNGKEYKCKVSNKGLPSSIEKTISKTKGQPREPQVYTLPPSREEMTKNQVSLTCEVKGFYPSDIAVEWESNGQPENNYKTTPPMLDSDGSFFLYSKLTVDKSRWQQGNVFSCSVMHEALHNHYTQKSLSLSPGSGGGGGTSATATPGANWVNVISDLKKIEDLIQSMHIDATLYTESDVHPSCKVTAMKCFLLQLQVISLQSGDASIHDTVENLIILANNSLSSNGNVTESGCKECEELEQKNIKEFLQSFVHIVQMFINT light: DIVMTQSPSSLSVSAGDKVTMSCRASQGISSWLAWYQQKPWQPPKLLIYKASTLESGVPDRFTGSGSGTDFTLTISSVQAEDLAVYYCQQSYSTPWTFGGGTKLEIKGTVAAPSVFIFPPSDEQLKSGTASVVCLLNNFYPREAKVQWKVDNALQSGNSQESVTEQDSKDSTYSLSSTLTLSKADYEKHKVYACEVTHQGLSSPVTKSFNRGEC
2 | no binding (tested: 3000 nM) | 715 fold | 0.137 nM | 98 nM | – | > 3000 nM | xmPD-1-hIL15 V49R/E46G/E64Q/D30N (other, not restated for this mutant; also called xmPD-IL15 V49R/E46G/E64Q/D30N) heavy 1: HHHHHHHHGGGGSGSGGEVQLVESGGGLVKPGGSLELSCAASGFTFSSYWMSWVRQAPEKGLEWVAAISPSGGSTYYADSVKGRFTISRDNAKNTLFLQMTSLRSEDTAMYYCAKESWGAYYDLWGQGTTVTVSSASTKGPSVFPLAPCSRSTSESTAALGCLVKDYFPEPVTVSWNSGALTSGVHTFPAVLQSSGLYSLSSVVTVPSSNFGTQTYTCNVDHKPSNTKVDKTVERKCRVRCPRCPAPPVAGPSVFLFPPKPKDTLMISRTPEVTCVVVAVSHEDPEVQFNWYVDGVEVHNAKTKPREEQFNSTFRVVSVLTVVHQDWLNGKEYKCKVSNKGLPSSIEKTISKTKGQPREPQVYTLPPSREEMTKNQVSLTCLVKGFYPSDIAVEWESNGQPENNYKTTPPMLDSDGSFFLYSRLTVDKSRWQQGNVFSCSVMHEALHNHYTQKSLSLSPGK heavy 2: EVQLVESGGGLVKPGGSLELSCAASGFTFSSYWMSWVRQAPEKGLEWVAAISPSGGSTYYADSVKGRFTISRDNAKNTLFLQMTSLRSEDTAMYYCAKESWGAYYDLWGQGTTVTVSSASTKGPSVFPLAPCSRSTSESTAALGCLVKDYFPEPVTVSWNSGALTSGVHTFPAVLQSSGLYSLSSVVTVPSSNFGTQTYTCNVDHKPSNTKVDKTVERKCEVECPECPAPPVAGPSVFLFPPKPKDTLMISRTPEVTCVVVAVSHEDPEVQFNWYVDGVEVHNAKTKPREEQFNSTFRVVSVLTVVHQDWLNGKEYKCKVSNKGLPSSIEKTISKTKGQPREPQVYTLPPSREEMTKNQVSLTCEVKGFYPSDIAVEWESNGQPENNYKTTPPMLDSDGSFFLYSKLTVDKSRWQQGNVFSCSVMHEALHNHYTQKSLSLSPGSGGGGGTSATATPGANWVNVISDLKKIEDLIQSMHIDATLYTESNVHPSCKVTAMKCFLLGLQRISLESGDASIHDTVQNLIILANNSLSSNGNVTESGCKECEELEEKNIKEFLQSFVHIVQMFINT light: DIVMTQSPSSLSVSAGDKVTMSCRASQGISSWLAWYQQKPWQPPKLLIYKASTLESGVPDRFTGSGSGTDFTLTISSVQAEDLAVYYCQQSYSTPWTFGGGTKLEIKGTVAAPSVFIFPPSDEQLKSGTASVVCLLNNFYPREAKVQWKVDNALQSGNSQESVTEQDSKDSTYSLSSTLTLSKADYEKHKVYACEVTHQGLSSPVTKSFNRGEC
